Target: the molecule itself
Assay: cryo-EM structure

B1: Saccharomyces cerevisiae vacuolar transient receptor potential yeast 1 (TRPY1) channel, full length (natural protein, UniProt Q12324 1-675, looked up)
chain: MVSANGDLHLPISNEQCMPENNGSLGFEAPTPRQILRVTLNLKYLIDKVVPIVYDPNDIVCDHSEILSPKVVKLAYEACGGNPKDKANKRKYQSVIIFSLLKVCEWYSILATMEVHNAKLYETRNLASQQLCKLLIEREETRDLQFLFMQLLLRRYVINENDEDQEPLNALELATDMHCTTVIGSSGFQRCLKWIWRGWIVQNGLDPTTFIKDDSLAEVSLISHFNPVRLKAPVYQNYLQMIFSFLFLGLYTLVVNGKDSERVQSFDLLESIFYVFNTGFILDELTKLYYIGYAHLSFWNLFNDTTYLIITFAMGFRAMSVTPLNAKYSSEDWDKISYRVLSCAAPFVWSRLLLYLESQRFIGIMLVILKHMMKESIVFFFLLFLIMIGFTQGFLGLDSADGKRDITGPILGNLTITVLGLGSFDVFEEFAPPYAAILYYGYYFIVSVILLNILIALYSTAYQKVIDNADDEYMALMSQKTLRYIRAPDEDVYVSPLNLIEVFMTPIFRILPPKRAKDLSYTVMTIVYSPFLLLISVKETREARRIKYNRMKRLNDDANEYDTPWDLTDGYLDDDDGLFSDNRNSGMRATQLKNSRSLKLQRTAEQEDVHFKVPKKWYKNVKKCSPSFEQYDNDDTEDDAGEDKDEVKELTKKVENLTAVITDLLEKLDIKDKKE
stoichiometry N: 4
